{
  "source": "the NTF2 design screens of Basanta et al. (2020)",
  "data": [
    {"assay": "protease stability score; higher = more stable; yeast display proteolysis, trypsin and chymotrypsin;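 also: relative to predicted unfolded state with 0 unfolded-like and 1 meaning tenfold more protease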", "values": [
      {"sequence": "SEEEENIEHSLRIMNENLETGDEHSLAELFDPNAKIDIGDKHLHGRETLITHLVLLGIKHSSIINREYHMIGEWAHINGDLRIEIGDKERHHDVRILSRKIDGRWVVTEFHIR", "protease stability score": 1.19},
      {"sequence": "KEEEEFAKHILHMLRYLWETGDEEEFERMADPNARLIQGDKHFHGREEITKSVKELRVRHFEEKHIHYQGEKSLIIGHVDGEINGQRHEIDVIIRLEVVNGKLKRIRIEYR", "protease stability score": 0.239},
      {"sequence": "DEDTKLAKEAWRHLMENLHTGNEEIILHLVDPNAKFRYGEFEHHGRESLKWFRKRYDHIEVTHVEFHHVQVQGDKLIYHGTLEMSFEQGNKHEHWEYNVLLISRKINGRWIVKSIEVN", "protease stability score": 0.953},
      {"sequence": "DEEHHDARRIIEEFITLLKTGDEENLDEYLDPNVRIEFNGRDLHGMEWFLHFLREIRFRDDDHKRIQVKVINGQVHILIKMHVDGVWDGRRKISDVHLHFTVVKVDGRWRFTSIHVHIE", "protease stability score": 1.35},
      {"sequence": "SEEEDHIREFLLLIIHAFRTGDEEFFERNVDPNVRLHSDVDGRELQLHGRDEFSRYFHHFRHRAGIDHIEDKRVTSQGDKIIVHGWSIVGDKIHHLELHFIVIDGQVHTVEIRPK", "protease stability score": 1.28},
      {"sequence": "DELRDEVRRWLTKLIEDHKTGDEKAMMELADPNVKVVIDGKELVGMELYEHFVRYWREHIRLTDLKIHDMRIQGDKVHAETRVEGNFNGKYRVIETRVLIVKINGRWFLKEIEID", "protease stability score": 2.02},
      {"sequence": "HEEEHHMRELFKRFWHLFETGDWDKLAKNADPNVRSDINGVDRHGREEVIHELKRIWDELGIDHLELKEVHIQGNKVHSDGKLVYNGVSRKTHIELIVYNGVLKRMSIEIH", "protease stability score": 1.38},
      {"sequence": "DEEEEEDKRMADEIVHSFLTGNEDWLHELADPNTRSEVGDKEAHGRENMVKLLRIHLRELGVDHIELTHVRVHSQGDKIIVIVHGKVKIGDKILELHIHIIVLKIDGRWLLHSVRIEIN", "protease stability score": 1.09},
      {"sequence": "SEDEKTWHKLMEDHIKDWITGNEEKLEENADPHARFELHVGDKRITDHGRDFIEHWVDRIKNLRIELHDFEIQGNKVHLDVRVNVNGVHEIVTIIVIVIDGKLHSLHIHVEIR", "protease stability score": -0.08},
      {"sequence": "DEREKELERIARELLKALYTGDEDILDKLVDPNVRLELDIDGKTNDIHGMENWFRFYETQWKKLGVDVYDIKDMDVWNGKITINSRVEVNGRYIDTRLILVVIDGRMHEIHIKEK", "protease stability score": 1.23},
      {"sequence": "DEDRREVQRFIESVVHAIRTGDWRRILELADPNTRLDFDGKVFHGMHVSVKRIIEELEKVKGLRIKDMTTDSVNIYNGVVELDGTLDLEIGDYESHVSAKFVLLKFNGRWFIHEESTR", "protease stability score": 1.59},
      {"sequence": "DESRESLEEALKIYIHDIKTGDEKSLTELADPNARLNFNGRWHHGREMVTKWMSEMRLHDFKLHELDVQGDKVHIRGEIFFEIDGRVIRSEIHIVMIKINGRWLLHSMHVE", "protease stability score": 1.17},
      {"sequence": "DHTHEAVEHLWKLLLHAIATGDFRILSHLLDPNVRIIFNGRTLVGRQSLEILLKRFDHEKIEEVRLRSTRIQGNFVDLDTEIIMVLHYDGKEYRIHTETHVHVVKVDGRWLIEELRID", "protease stability score": 2.62},
      {"sequence": "SDLNQVFRESLEHHLHALETGDWRELYRLADPNVLVIVGDKEIHGMEEWSRILEEEMRRVKGMRIEINPTDIDFQGNKVRAHTRLHVEVDGRSVETDTEHESKKVNGRWILKRLTIR", "protease stability score": 1.16},
      {"sequence": "DEDTEEWRHLLEEYREFIETGDEDYLRTMLDPHVRVVVNGRDHHGWKAFNFMLRHIRVRHVHIHDIRLFNGQVEVDSRIDGIVNGRRLIFRLDIVAFKIDGQWIAQSFTII", "protease stability score": 1.65},
      {"sequence": "SEEKERNHEIAEILIKLWLTGDEDHFWQLADPNPRVDFDGQEIIGRESIMRLLEHLIRRLGINHKHVDHTERQGDKVHIEVRLDQGEYHRTLHLEFIYVNGRVKEVRIRSRER", "protease stability score": 1.4},
      {"sequence": "DEFHHWYERVIQEFDHAVETGNEHRIRELLDPNVRIIIDGQDLHGREDMIHLISEIRVSITDRRERSFRPVGDKINLLMRVDQQVFVDGQTEQVDTEVRWIIIKVNGVWLIRRIEVI", "protease stability score": 1.47},
      {"sequence": "DEETKFLLDIFRLVLELFMTGDEDTFSRLFDPNVRNEVNGVEAIGWHQVRELIKEILKEIRIEHIHIHDVRAVGDKVHADTRTDGIINGKRQRRETHVHLETVNGRLKSIWLQIE", "protease stability score": 1.13},
      {"sequence": "TEHEKFKEEWVRMFLRDWLTGNENTLRHLADPDTLLEINGRIFHGMHTISRWTEEHLRRIDHLRLEMHTVDVIGDFAHVHGTLKLHVGDKEHHVTFHINLFTINGRIKSIIVKEE", "protease stability score": 1.43},
      {"sequence": "SEDEEEIKKAVEILLKELRTGDEDSFEKNLDPNARVHDENHRSHGREEVTKWFYEFRKKFKNARHTFEHIIVVGDKVINHMRVEIDGVTINSLWFIKKVDGRWVITSIHIN", "protease stability score": 2.26},
      {"sequence": "DEDREHVLKVTRLIWRAWMTGDFERISHLIDPNAKIDINGVDLHGREKLRHHLERVDYMHLESEHERRIDIIGDFVRIEFRFTVILIVNGQEVRDTTHVEIRARIVNGRLTEVYVHEH", "protease stability score": 1.55},
      {"sequence": "DEHEEDWRHVLKTLEDVMRTGDPHLFSHLADPHVRLRIDGRDHIGMELMWEILHKYKNITIEIEHSRVQGDKIEIRGTLDVDGRRYHVTIFADKINGKWIHREMEVT", "protease stability score": 1.18},
      {"sequence": "DEDRKEAERIARQTLHDLRTGNEDMLTKLLDPHARIDVNGVDNIGWEIIVKHVKERRHQWRIHHEHWRDYHFINGVIHIDLEVHIRVDGVDIRTETRVHILIINGRLREIRVEVD", "protease stability score": 0.772},
      {"sequence": "SEDDELSKHAFDMLRDSIHTGDEHLNNKLFDPHVRLYYGDKLLIGREHLTRLLFFWAKELRIELRVRHYESQGEKVDIHVELIMRVNGREQKHDVILYLEKVNGRWIMHSIEIR", "protease stability score": 0.775},
      {"sequence": "DEEERLLDHVIKLMLQMHLTGNEEIFLNLADPHAKFYFNGVDLHGMELVSKWESEWLHHIRIRRRHIEDSRIVGDKAHIHVRVDEEIGDKKLDTHYRVDLVVINGRWHSVRIDMR", "protease stability score": 1.25},
      {"sequence": "SEERHELERTLKRYQDALITGNEEQMEKLIDPNVRTRIDGVDLIGMELVIEELVEWLDRYPNVRIHSHIHEVRFQGDKADIDSRLHLIFDGQEYRLHTRIHIWKFNGRWVLTHSEID", "protease stability score": 0.884},
      {"sequence": "TEEHEDIMHFILEWTNSLLTGDFKRVKEMADPHVRVLIVIGDKELHLHGREWILKRTHDIVREMRVEIILHHVDSQGNFAHVDSTLRIEVDGVRFERKTRIHMDIVNGKLKSHEHRIE", "protease stability score": 1.29},
      {"sequence": "DQRERDQHIALEIWLLVLETGDERYVRRYADPRMRIEVGDKEIHGREDALEFRTEELRHMRLRDFRNKSFTVIDGRVDFYGHLLIEVDGRSQIFDSRLIILKVNGRWFLESEIRH", "protease stability score": 1.43},
      {"sequence": "HEDHERVRHIIERWWHILETGDEDEMEDMADPNVQIYIGDKRHHGREILAEHVRKFKGKKVNIKRLDIQGDKFRVDGDVHYDGRHHRVRIEIDVVDGRIKRLRIEIE", "protease stability score": 1.38},
      {"sequence": "DEEKELADYISHLLVENLKTGDWHSLRRLIDPNARLEYGDKEHHGWKEIYESKRHLDEELGVKHVNINIHRINYQGEKVEIDGEVRIHFNGRTENRKVNIELRIFNGRIKEVIVDIR", "protease stability score": 1.17},
      {"sequence": "NEVEDEIKHLLEHLLHSHDTGDWHDLVRLADPNVRVNINGKHFHGREDVEEVIKRLGIKHIRIHHVEVQGDKIHIDGNMHFDGRVYETHIDAKKIDGRWIMHNLEVR", "protease stability score": 1.4},
      {"sequence": "HEMKEESEKAVRLMVHLFKTGDEETIYRMADPNARFFFDGRHIHGMDHVFREVLRLEREYGVKHFELRDMELRIFDGRIFLHIDGVEEFNGRRLETHLHFESRKIDGRWHFQSESIVLR", "protease stability score": 0.317},
      {"sequence": "SDWDEWTKRMLDILIEALETGDEEVLSRLIDPNMRLDINGQEFHGREVILRHLITEIQRADHVEFRIEDRDLIDGRVYMEVEKIIHINGVEFRHHVLIIIEKVDGRWYINSVHVR", "protease stability score": 2.46},
      {"sequence": "GDSEKDAERAIDIFLDTVRTGDERLIHELLDPTTILQVGDKQFHGREEADKWWHELLRKLGHTNIEMEVRDMKVQGDKVHLDTELRFNGRSTRIHVVIIKVNGRWLIEHIEIK", "protease stability score": 1.23},
      {"sequence": "DEHEHAFRIIAEMLVEAMKTGNEETFSRLFDPNVRITWNGRHNHGRENYVEFIRQIRVDDLHIVLEDVRVIDGVIEVHGKMRIHGIVNGRRDEFIWESRVVIVKIDGRWHIESIRFD", "protease stability score": 1.09},
      {"sequence": "DEDREMLEELTRRLAHSVETGDEDHHSHLADPNTRETIHINGRTFEHHGWEIWSELLTRLGADHMHLDRVHVVNGRVEIRSRVHVGDKEYKVHILMVVINGRLKEVSVHIH", "protease stability score": 0.721},
      {"sequence": "DDEEHASRNAYRILKRVVETGDWREFRKMMDPDARVLINGVQLHGREAVHHLLERVDHLHDIELRHIHTQGNKIHIEISVDGLIDGQKTETERRILVTKFNGRWKVEQIEIG", "protease stability score": 0.628},
      {"sequence": "DEHTEDTRHLEEFMLRAIKTGDEHILKRLMDPNARNEQGDKHQHGMEIIAEEWSRIKNVKVIFHRVRIQGDKIDVDGELIVNGVTMRVEFYSRKIDGRWVIHSVHFE", "protease stability score": 1.17},
      {"sequence": "DELEEISRRAQELSLRLFHTGDERSWERLVDPHAKLDVNGVDVHGRELVHKFFERNIRELGIKHIHLEHEEVQGNKVKLIMHINVNGVERRLVIIAEKIDGRWVLREHKEE", "protease stability score": 0.464},
      {"sequence": "SHNDKLWHEDIELFIEAWETGDWKLLVEMLDPHTRIEIRQGDKTIVLHGREDASRDIIEYTEFFKNVTITKDDRHIQGDKTEMHITIIIGEFVLRTIIEFDMFNGQLKTYRRKVL", "protease stability score": 1.18},
      {"sequence": "SEDEDIAKEILRLLLEALRTGDWHTVHRLMDPHARVHVNGRDFIGMEEVLRWLEEFLRHMRLRSLTVHDIRIFDGRLHVDSRSDVEIDGRRISIETEVIILKVDGRWHVKSIIFR", "protease stability score": 1.36},
      {"sequence": "DEHRESLETALEIEIETMLTGDEDSFKRLADPHYRLDVNGVKYHGREAVRVYLEQFDYVEHIVSKDVLVQGDKVRWDVQLDGKYNGQRRRVRVDIISRKINGRWILEEIRIK", "protease stability score": 0.748},
      {"sequence": "SDYTEVAHEIMDEWSKAILTGDEDTVEELLDPNVRVDINGQEIHGWETIFKKLRRFVDELGIDHVHVNTKRVKLIGNYIHVDGELRYHQGDFHIVRKVRLLIVKINGQWLIREINLK", "protease stability score": 2.42},
      {"sequence": "DEEKDHAQMFLELWRHFLETGDEEFLERLADPHVKSLINGVEHHGREIMYKYLIKFLRRLGVDRVHTEVRIHHMHVINGVAFFDGTLHLNFNGQTYSRRVEIIVYKVNGRWHLHEFRIE", "protease stability score": 1.74},
      {"sequence": "DERSHVLEEVLKKTSRANETGNEEIIEENLDPNTRFDWNGVIIHGREQWLELVKHMRISIHHFDTRDIREFNGRADVRGDMDSVIEVDGRRLRLDTHVIYHATKVDGRWVITEIRIH", "protease stability score": 0.41},
      {"sequence": "DESDTLAKEATREFEEFMRTGDEHSLLKLADPHVRLFWNGKQLVGREDYSKHIKFLLEHFGFDNIESRTEHIDWQGDKLRLHLRMHVNGKTITVEIHSEKINGRWMNREIHFT", "protease stability score": 1.44},
      {"sequence": "SEDETIALEFLKNWLRDLKTGNEEALSKLLDPNARMVFNGKEHHGREILLDIIKHFVERIDHFNSLHVHDIKIQGDKVHMDLRLIGHVDGREVEHRIHMVIIKYDGRWINQVEEIE", "protease stability score": 1.16},
      {"sequence": "SKEEDMMRKIVEDFSRAQWTGDEKKVDELLDPNTRSDINGVHIVGMEEYLRVMKHRGVEFKHSEIKDVNLQGDKATWDGIDHVNFNGKDIELQVHIYLRKINGRWSIHTLKVQ", "protease stability score": 0.386},
      {"sequence": "DESEESIRKVVKLLERAHRTGDEHEMKHLLDPNAKLIINGVELHGMELFEKLFKFERHHWRLHSMHVRHVDTQGDKANSDGEEDREFDGRREEVKTIIVMVKIDGRWHVKHIIFL", "protease stability score": 1.08},
      {"sequence": "EEDDKFSELAFNMLVESFKTGDEQHWRELADPRVKYQIDGRDLIGWTAFRRFLNEFGIDHMHIKLHDHRDYNGQVELDETLEIRYGDKTEHIKVTTIVHKINGQWIVKSFSVH", "protease stability score": 0.682}
    ]}
  ]
}
